Assay [1] deals with single point mutations in RAD23A UBA1 or UBA2 (as tested with Rev1). In words: co-IP.
In assay [2] the target is single point mutations in RAD23A UBA1 or UBA2 (as tested with Pol κ). The assay is described as follows: co-IP.
Assay [3] deals with FLAG-RAD23A lacking UBA1 (human) (UniProt P54725). The assay is described as follows: co-IP.
Assay [4] concerns the target single point mutations in RAD23A UBA1 or UBA2 (as tested with Pol ι). The assay is described as follows: co-IP.
Assay [5] concerns the target His Pol ι aa 1–419 (catalytic domain of Pol ι) (human). In words: MST.

Values joined by “and” are separate entries in the source; they are usually repeats but may differ in a detail not shown here. Equal values may be shown once.

HA-tagged REV1, sequence (Q9UBZ9 whole entry): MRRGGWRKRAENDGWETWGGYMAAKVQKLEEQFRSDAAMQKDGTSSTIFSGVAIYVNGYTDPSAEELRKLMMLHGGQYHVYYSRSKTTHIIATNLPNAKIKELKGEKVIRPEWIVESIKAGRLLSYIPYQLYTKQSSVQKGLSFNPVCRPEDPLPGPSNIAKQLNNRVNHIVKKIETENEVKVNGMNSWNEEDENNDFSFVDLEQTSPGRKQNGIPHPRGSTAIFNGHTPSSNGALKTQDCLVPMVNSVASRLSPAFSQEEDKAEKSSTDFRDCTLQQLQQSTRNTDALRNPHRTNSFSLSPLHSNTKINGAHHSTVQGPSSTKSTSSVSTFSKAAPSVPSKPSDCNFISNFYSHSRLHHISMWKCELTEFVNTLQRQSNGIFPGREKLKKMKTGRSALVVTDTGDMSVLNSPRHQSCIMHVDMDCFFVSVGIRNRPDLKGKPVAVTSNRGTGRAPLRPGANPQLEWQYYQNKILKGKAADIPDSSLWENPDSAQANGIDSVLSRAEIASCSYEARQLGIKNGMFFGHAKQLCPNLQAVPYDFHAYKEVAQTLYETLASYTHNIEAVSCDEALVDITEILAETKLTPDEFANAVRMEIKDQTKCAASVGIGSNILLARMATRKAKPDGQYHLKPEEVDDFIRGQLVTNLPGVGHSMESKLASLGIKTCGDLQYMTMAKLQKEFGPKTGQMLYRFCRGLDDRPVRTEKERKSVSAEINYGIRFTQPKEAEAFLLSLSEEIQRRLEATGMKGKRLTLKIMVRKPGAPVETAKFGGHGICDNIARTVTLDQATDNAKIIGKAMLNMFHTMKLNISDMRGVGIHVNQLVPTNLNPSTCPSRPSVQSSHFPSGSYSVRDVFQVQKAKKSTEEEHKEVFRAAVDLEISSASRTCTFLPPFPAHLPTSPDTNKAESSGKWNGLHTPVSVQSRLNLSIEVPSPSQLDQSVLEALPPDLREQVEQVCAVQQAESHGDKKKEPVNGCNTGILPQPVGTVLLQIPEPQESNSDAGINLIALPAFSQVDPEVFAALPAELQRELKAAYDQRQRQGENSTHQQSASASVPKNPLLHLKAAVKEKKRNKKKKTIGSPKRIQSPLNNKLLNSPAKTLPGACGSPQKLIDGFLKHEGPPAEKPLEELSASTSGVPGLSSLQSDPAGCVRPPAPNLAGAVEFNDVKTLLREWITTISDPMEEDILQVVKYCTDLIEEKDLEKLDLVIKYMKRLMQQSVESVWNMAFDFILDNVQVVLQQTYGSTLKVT
HA-tagged Pol κ, sequence (Q9UBT6 whole entry): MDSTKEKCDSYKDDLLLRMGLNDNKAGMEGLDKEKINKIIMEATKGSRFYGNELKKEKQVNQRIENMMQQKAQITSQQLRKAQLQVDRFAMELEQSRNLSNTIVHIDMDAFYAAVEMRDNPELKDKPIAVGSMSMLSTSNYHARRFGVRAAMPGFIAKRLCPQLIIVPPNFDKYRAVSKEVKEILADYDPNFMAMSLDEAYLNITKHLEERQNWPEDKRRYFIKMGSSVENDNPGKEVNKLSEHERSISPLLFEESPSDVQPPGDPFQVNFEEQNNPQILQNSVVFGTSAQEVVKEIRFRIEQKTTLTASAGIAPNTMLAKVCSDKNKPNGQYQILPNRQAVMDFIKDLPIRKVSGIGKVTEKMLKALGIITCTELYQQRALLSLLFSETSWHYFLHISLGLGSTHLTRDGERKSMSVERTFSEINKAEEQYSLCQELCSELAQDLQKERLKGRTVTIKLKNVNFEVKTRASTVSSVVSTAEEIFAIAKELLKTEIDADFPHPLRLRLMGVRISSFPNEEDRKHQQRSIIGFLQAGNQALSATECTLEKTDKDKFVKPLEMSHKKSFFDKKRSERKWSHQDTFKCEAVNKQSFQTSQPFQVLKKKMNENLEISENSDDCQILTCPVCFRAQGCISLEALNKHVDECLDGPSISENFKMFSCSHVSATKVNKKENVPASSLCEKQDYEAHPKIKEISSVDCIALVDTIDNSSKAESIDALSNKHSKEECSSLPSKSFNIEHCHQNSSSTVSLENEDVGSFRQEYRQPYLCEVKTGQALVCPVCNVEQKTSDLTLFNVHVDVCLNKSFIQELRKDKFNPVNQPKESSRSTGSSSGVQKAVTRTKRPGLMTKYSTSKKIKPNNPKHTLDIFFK

In turn, “HA-tagged REV1 (from UniProt Q9UBZ9 1-1251) (enzyme)” yielded a percent disruption of binding against WT RAD23A in assay [1] of 70 to 80%.

As for “HA-tagged Pol κ (from UniProt Q9UBT6 1-870) (enzyme)”, the percent disruption of binding against WT RAD23A in assay [2] was 40% and 60%.

WT HA-Pol ι (enzyme): the percent reduction of binding against WT RAD23A in assay [3] was 75 to 85%. For the same substance, in assay [4], the percent disruption of binding against WT RAD23A was 40% and 60%.

Turning to “RAD23A ΔUBL fragment (domain or fragment)”, the Kd in assay [5] amounted to 90 µM.

Source of the values: paper PMC10842004.
